From the RNAGym collection of RNA variant scans (doi:10.7554/elife.80360)

B1: HDV Ribozyme (parent)
chain: GGCCGGCAUGGUCCCAGCCUCCUCGCUGGCGCCGGCUGGGCAACAUUCCGAGGGGACCGUCCCCUCGGUAAUGGCGAAUGGGACCCA

Variants of: B1
Assay: self-cleavage, relative activity (ratio to wild type); higher = more cleavage; co-transcriptional
For C24A U79G, the self-cleavage was 0.312. Work on C7U G53C yielded a self-cleavage of 1.12. C62A U79A gave a self-cleavage of 0.636. With C4A A83G the self-cleavage was 0.234. For U37G G53U, the self-cleavage was 0.157. G35A U65C gave a self-cleavage of 0.521. In the case of U27A U79C, the self-cleavage is reported as 0.201. Variant G1A C30U has a self-cleavage of 0.0554. G11A C26U gave a self-cleavage of 1.12. In the case of C75U G76C, the self-cleavage is reported as 0.271. For A42C U69A, the self-cleavage was 0.156. Work on C36G G53A yielded a self-cleavage of 0.0959. With C15U U69A the self-cleavage was 1.15. In the case of G1U G54U, the self-cleavage is reported as 0.358. With G74C A83U the self-cleavage was 0.185. G53A G74U gave a self-cleavage of 0.59. C14U G28A showed a self-cleavage of 0.0811. In the case of C36U C44A, the self-cleavage is reported as 0.166. For U37C G53U, the self-cleavage was 1.13. U65G U69G showed a self-cleavage of 0.942. G28C C86G showed a self-cleavage of 0.0692. U37A G38A showed a self-cleavage of 0.086. C13G C41G gave a self-cleavage of 0. Variant C66A U69A has a self-cleavage of 1.16. G10C G73C showed a self-cleavage of 0.277. G38C C86A gave a self-cleavage of 0.136. With G53A the self-cleavage was 1. G35C C75U showed a self-cleavage of 0.0692. Variant U12G G80U has a self-cleavage of 0.534. For C14U A42U, the self-cleavage was 0.587. Work on A45G U60C yielded a self-cleavage of 0.831. Variant A43U U72A has a self-cleavage of 0.194. In the case of A8G G34C, the self-cleavage is reported as 0.0573. With G38C G55A the self-cleavage was 0.124. With G38C C75G the self-cleavage was 0.104. For A42G G55U, the self-cleavage was 0.354. G53U C58U showed a self-cleavage of 1.03. For G35U U72G, the self-cleavage was 0.151. Work on A8C G67A yielded a self-cleavage of 0.898. Work on G39A C64A yielded a self-cleavage of 0.458. C62U C85G gave a self-cleavage of 0.892. C63U G82C showed a self-cleavage of 0.192. With U47A C57A the self-cleavage was 1.02. A16G A78C showed a self-cleavage of 0.308. Variant C21A C86U has a self-cleavage of 0.0308. G53A C63G gave a self-cleavage of 1.01. Variant U20G A56C has a self-cleavage of 0.196. A78C C84G gave a self-cleavage of 0.11. With G5A G52U the self-cleavage was 0.237. In the case of G54A C62A, the self-cleavage is reported as 0.917. With G28U A56G the self-cleavage was 0. With A8G G59A the self-cleavage was 0.743. For G28U C44U, the self-cleavage was 0.0297. Work on A42U A83C yielded a self-cleavage of 0.119. C33U A78U showed a self-cleavage of 0.378. G31C A77C showed a self-cleavage of 0.225. Variant U60C G82A has a self-cleavage of 0.427. Variant G50U G82C has a self-cleavage of 0.435. C19G A56G showed a self-cleavage of 0.0639. With U12C U69C the self-cleavage was 0.391. Variant C19A G38U has a self-cleavage of 0.0346. For C14G A45C, the self-cleavage was 0.434. Work on G10A G11C yielded a self-cleavage of 0.256. With C44A G50A the self-cleavage was 0.671. G52U U60C gave a self-cleavage of 0.961. Variant G2C A78G has a self-cleavage of 0.0875. In the case of U69A U72C, the self-cleavage is reported as 0.665. G28U G76U gave a self-cleavage of 0.187. Work on G53U C58G yielded a self-cleavage of 0.939. U46C U60G showed a self-cleavage of 0.755. Variant A45G C49G has a self-cleavage of 0.831. With C19A C61U the self-cleavage was 0.0671. G38A G40U gave a self-cleavage of 0.149. Work on G17A A43C yielded a self-cleavage of 0.0369. U47G G81U showed a self-cleavage of 0.214. G2U C63U gave a self-cleavage of 0.0545. In the case of C18G A70U, the self-cleavage is reported as 0.111. With U9G G76C the self-cleavage was 1.14. Work on G10A C32A yielded a self-cleavage of 0.153. For A16C U69C, the self-cleavage was 0.739. G53U G73C gave a self-cleavage of 0.428. In the case of U12A A45G, the self-cleavage is reported as 0.277. In the case of G29U G55A, the self-cleavage is reported as 0.122. In the case of G6C A56U, the self-cleavage is reported as 0.214. In the case of U27A A42U, the self-cleavage is reported as 0. For C49G G67U, the self-cleavage was 0.9. In the case of C64G U65C, the self-cleavage is reported as 0.199. G2U G53A showed a self-cleavage of 0.0412. Variant C57G U72C has a self-cleavage of 0.587. With G1C C57U the self-cleavage was 0.252. With G39U G59U the self-cleavage was 1.02. A43C G50U gave a self-cleavage of 0.432. In the case of C7A A87C, the self-cleavage is reported as 0.514. With G11C C63A the self-cleavage was 0.314. C33G C64A gave a self-cleavage of 0.213. G29A C30A showed a self-cleavage of 0.0264. Variant G38U A42G has a self-cleavage of 0. Work on U27G U60A yielded a self-cleavage of 0.914. G17C C85G gave a self-cleavage of 0.185. In the case of C36A G59A, the self-cleavage is reported as 0.164. C14A G55U gave a self-cleavage of 0.73. For U72C G73U, the self-cleavage was 0.272. G53A G54C gave a self-cleavage of 0.857. Work on G11A G34U yielded a self-cleavage of 0.219. For C62G A70C, the self-cleavage was 0.554. For U9C C13A, the self-cleavage was 0.158. For G5C C24G, the self-cleavage was 0. In the case of G55U U69G, the self-cleavage is reported as 0.933. Variant G54A G76A has a self-cleavage of 0.923. G6A C15A gave a self-cleavage of 0.375. A45U A77C showed a self-cleavage of 0.155. With G17U G55A the self-cleavage was 0.554. Work on C58G C75U yielded a self-cleavage of 0.122. In the case of C30G G35A, the self-cleavage is reported as 0.191. With G74C G80C the self-cleavage was 0.183. C15G U65C showed a self-cleavage of 0.332. With U27C C75U the self-cleavage was 0.161. A8G C22A gave a self-cleavage of 0.101. Variant G29U A77C has a self-cleavage of 0.13. Variant G67C G68U has a self-cleavage of 0.847. C3U C7G showed a self-cleavage of 0. Variant G1C G68A has a self-cleavage of 0.158. Work on C4G G29C yielded a self-cleavage of 0. With C13G C84G the self-cleavage was 0.0978. C26A U69C gave a self-cleavage of 0.988. In the case of G59A A78G, the self-cleavage is reported as 0.631. With C19A G53C the self-cleavage was 0.23. For G34A A71C, the self-cleavage was 0.0604. In the case of C24A C44G, the self-cleavage is reported as 0.256. With C32G C36U the self-cleavage was 0.111. C58A U60C showed a self-cleavage of 1.17. Work on C4U C48G yielded a self-cleavage of 0.554. Work on U46G G54A yielded a self-cleavage of 0.656. In the case of C18U C22G, the self-cleavage is reported as 0.0462. With G10U C66U the self-cleavage was 0.728. C24U C75G showed a self-cleavage of 0.119. For U23C C49U, the self-cleavage was 0.852. G59U U79C showed a self-cleavage of 0.563. Variant C24A C26U has a self-cleavage of 1.05. Variant U9C U72G has a self-cleavage of 0.582. Work on G54C G67C yielded a self-cleavage of 0.627. In the case of G11C C19G, the self-cleavage is reported as 0.0811. With C26U U72C the self-cleavage was 0.906. G5U G17C showed a self-cleavage of 0. G40U C66U gave a self-cleavage of 0.753. Variant C22U C84U has a self-cleavage of 0.29. Variant A51U C61G has a self-cleavage of 0.831. For C41A G55U, the self-cleavage was 0.968. Variant A56C U79G has a self-cleavage of 0.997. Work on U9C U65A yielded a self-cleavage of 1.25. With G28C U79C the self-cleavage was 0.155. In the case of A8C U79C, the self-cleavage is reported as 0.181. C64A A71C gave a self-cleavage of 0.277. C32G G74U showed a self-cleavage of 0.125. With C7A G54U the self-cleavage was 0.609. In the case of C7U G67C, the self-cleavage is reported as 0.529. Work on U27C U79A yielded a self-cleavage of 0.511. C13U C26U showed a self-cleavage of 1.07. For U72A C85G, the self-cleavage was 0.831. C19G G25C gave a self-cleavage of 0.156. G55U C64U gave a self-cleavage of 1.05. For G59U C84G, the self-cleavage was 0.731. G39C A45C showed a self-cleavage of 0.198. In the case of C62U C84G, the self-cleavage is reported as 0.692. Variant U12G G59C has a self-cleavage of 0.95. With U20G G55C the self-cleavage was 0.0978. Variant G52A C61U has a self-cleavage of 0.879.
